Source: patent US20230250135A1

Biological target: trimeric stem polypeptides with H7 like residues at the beta2/beta3 loop, A-helix and lower part of the stem (FIG. 13A)
Experiment: Binding-AlphaLISA, Expi293F supernatant, normalized to UFV172561

Sequence of CR9114 (antibody) (VH): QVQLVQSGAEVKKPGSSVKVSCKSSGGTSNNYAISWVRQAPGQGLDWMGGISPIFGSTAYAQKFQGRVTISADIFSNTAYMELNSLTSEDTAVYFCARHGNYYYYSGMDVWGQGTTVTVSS
Sequence of CR9114 (antibody) (VL): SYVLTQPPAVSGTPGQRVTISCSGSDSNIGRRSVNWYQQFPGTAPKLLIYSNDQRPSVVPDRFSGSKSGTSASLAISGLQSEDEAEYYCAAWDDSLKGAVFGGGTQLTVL

## CR9114 (antibody)
  variation in antibody binding relative to reference UFV172561: 20%
